According to publication PMC5683014 (Acta Crystallographica. Section D, Structural Biology, 2017):
One block for each molecule: values may come before it.

Columns and labels:
Experiment in all cases: BLI; BLItz (ForteBio); biotinylated Fab loaded on streptavidin biosensors (rehydrated in PBS with 0.1% BSA); lysozymes passed on and off at a range of concentrations; global fits of kinetics (BlitzPro 1.2.1.3)
HyHEL10 Fab = biological target: HyHEL10 Fab
[1] = biological target: T1, Pekin duck egg lysozyme isoform II (Anas platyrhynchos, Pekin duck, …, UniProt P00705, strain); conditions: both partners purified
T1 construct: Isoform II of C-type lysozyme of Pekin duck (Anas platyrhynchos), 129 positions; entry P00705 (Kondo DL-2) differs at residues 66 and 103; Second of three peaks eluted from CM resin; Observed intact mass 14460.98 Da; No crystal structure; also called DEL-II; DL-2 (Kondo); source: purified from Pekin duck egg white (CM ion exchange, gel filtration)

[2] = biological target: T2, Pekin duck egg lysozyme isoform I (Anas platyrhynchos, Pekin duck, …, strain); conditions: both partners purified
T2 construct: Allelic isoform I of C-type lysozyme of Pekin duck (Anas platyrhynchos), 129 positions; Asp66 and Asn103; First of three peaks eluted from CM resin; Observed intact mass 14391.88 Da; also called DEL-I; DL-1 (Kondo); source: purified from Pekin duck egg white (CM ion exchange, gel filtration)
T2 chain: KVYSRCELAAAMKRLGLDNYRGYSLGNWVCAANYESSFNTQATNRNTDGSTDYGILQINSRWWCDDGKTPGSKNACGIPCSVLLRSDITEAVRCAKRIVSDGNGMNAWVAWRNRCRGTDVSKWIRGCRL

Kd (HyHEL10 Fab): > 1000 nM
Molecule: Pekin duck egg lysozyme isoform III (enzyme)

Kd [1]: 34 nM | Kd [2]: 40 nM
B1: HyHEL10 Fab (Fab, V domains shown)
VH: DVQLQESGPSLVKPSQTLSLTCSVTGDSITSDYWSWIRKFPGNRLEYMGYVSYSGSTYYNPSLKSRISITRDTSKNQYYLDLNSVTTEDTATYYCANWDGDYWGQGTLVTVSA
VL: DIVLTQSPATLSVTPGNSVSLSCRASQSIGNNLHWYQQKSHESPRLLIKYASQSISGIPSRFSGSGSGTDFTLSINSVETEDFGMYFCQQSNSWPYTFGGGTKLEIK
notes: HyHEL10 Fab heavy chain; HyHEL10 kappa light chain; Cloned into pCEP4; also called HyHEL10 Fab arm; source: Expi293, transiently expressed, purified from supernatant (HisTrap FF Crude)
